Patent US20160159872A1

Tests used:
[1] = biological target: 6xHis-CtBP (UniProt Q13363); experiment: competition assay of the CtBP/E1A protein interaction (format not said)
[2] = biological target: 6xHis-CtBP (UniProt Q13363); experiment: competition assay of the CtBP/E1A interaction, FIG. 3
[3] = biological target: 6xHis-CtBP (UniProt Q13363); experiment: competition assay of the CtBP-E1A interaction (AlphaScreen or fluorescence polarization; not said which)
[4] = biological target: 6xHis-CtBP (UniProt Q13363); experiment: fluorescence polarization; unlabeled peptide competes with the FITC-labeled 14mer peptide for CtBP

| Substance | IC50 [1] | IC50 [2] | IC50 [3] | IC50 [4] |
| --- | --- | --- | --- | --- |
| Tat-E1A-flag (peptide) | 1.7 µM | 7.7 µM | 1.7 µM |  |
| Wild-type 14mer E1A peptide … | 7.26 µM |  | 7.26 µM | 6 µM |
